Data on 7 molecules can be found in patent publication US20250136710A1 (published 2025).

As a reminder, the Kd is the concentration at which binding is half-saturated. A low value points to a tighter complex.

Common to all, as to test: FACS
In general terms: Flow cytometry measures light scatter and fluorescence of single cells or particles in a stream.

Test [1] has as its target T1, cynomolgus macaque PVRIG expressed on HEK293 cells (cynomolgus macaque, UniProt A0A2K5WVV8 1-322).
T1 chain: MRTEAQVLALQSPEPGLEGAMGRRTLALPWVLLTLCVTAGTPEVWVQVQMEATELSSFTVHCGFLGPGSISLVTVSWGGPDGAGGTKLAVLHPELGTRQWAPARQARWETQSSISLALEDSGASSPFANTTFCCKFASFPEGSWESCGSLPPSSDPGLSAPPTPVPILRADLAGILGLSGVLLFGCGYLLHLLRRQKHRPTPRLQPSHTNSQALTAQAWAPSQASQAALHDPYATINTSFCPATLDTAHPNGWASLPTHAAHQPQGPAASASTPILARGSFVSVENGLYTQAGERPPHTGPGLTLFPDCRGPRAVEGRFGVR

For test [2], the target named is T1, cynomolgus macaque PVRIG expressed on ….
In test [3] the target is T2, cynomolgus TIGIT (cynomolgus macaque, UniProt A0A7N9I9V4 89-209).
Test [4] has as its target T3, mouse TIGIT (mouse, UniProt P86176 29-148).
T3 chain: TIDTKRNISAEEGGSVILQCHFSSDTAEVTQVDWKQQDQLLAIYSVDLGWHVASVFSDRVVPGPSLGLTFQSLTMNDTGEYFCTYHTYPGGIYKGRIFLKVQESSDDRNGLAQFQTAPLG

Test [5] addresses T2, cynomolgus TIGIT. The source holds these as a separate data set.
Test [6] concerns the target T4, TIGIT (human, UniProt Q495A1 22-141).
T4 chain: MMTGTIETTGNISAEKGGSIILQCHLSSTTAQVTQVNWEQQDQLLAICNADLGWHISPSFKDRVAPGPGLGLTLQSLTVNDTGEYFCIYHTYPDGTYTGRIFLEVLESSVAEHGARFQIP

For test [7], the target named is T4, TIGIT.

Like-named read-outs stand apart in the source and are kept apart here.

T2 sequence (A0A7N9I9V4 entry or part of it): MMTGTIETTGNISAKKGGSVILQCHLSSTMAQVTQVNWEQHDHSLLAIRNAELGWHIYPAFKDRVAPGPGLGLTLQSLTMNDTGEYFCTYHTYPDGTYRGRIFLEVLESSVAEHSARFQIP

B1: PVRIG (COM701) (antibody, V domains shown)
VH: QVQLVQSGAEVKKPGASVKVSCKASGYAFTNYLIEWVRQAPGQGLEWIGVINPGSGGIYYAQKFQGRVTMTADTSTSTVYMELSSLRSEDTAVYYCARSETHDTWFAYWGQGTLVTVSS
VL: DIQMTQSPSSLSASVGDRVTITCKASQSVRIAVAWFQQKPGKAPKALIYLASTRHTGVPSRFSGSGSGTDFTLTISSVQPEDFATYYCLQHWNYPYTFGQGTKLEIKR
The molecule B1 yielded a Kd in test [1] of 0.248 nM.

B2: CHA.7.518.1 (antibody, V domains shown)
VH: QVQLVQSGAEVKKPGASVKVSCKASGYTFTDYNINWVRQAPGQGLEWMGYIYPYIGGSGYAQKFQGRVTMTRDTSTSTVYMELSSLRSEDTAVYYCAREDKTARNAMDYWGQGTLVTVSS
VL: DIQMTQSPSSLSASVGDRVTITCRVSENIYSNLAWYQQKPGKAPKLLIYEATNLAEGVPSRFSGSGSGTDFTLTISSLQPEDFATYYCQHFWGTPYTFGQGTKLEIKR
For B2, the Kd in test [2] is 0.35 nM.

B3: BM26 (antibody, V domains shown)
VH: EVQLQQSGPELVKPGSSVKMSCKASGYTFSSYVMHWVKQKPGQGLEWIGYIDPYNDGAKYNEKFKGKATLTSDKSSSTAYMELSSLTSEDSAVYYCARGGPYGWYFDVWGAGTTVTVSS
VL: DIQMTQSPASLSASVGETVTITCRASEHIYSYLSWYQQKQGKSPQLLVYNAKTLAEGVPSRFSGSGSGTQFSLKINSLQPEDFGTYYCQHHFGSPLTFGAGTTLELKR
Regarding B3, the Kd in test [3] worked out at 1.69 nM.

B4: CPA.9.083 (antibody, V domains shown)
VH: EVQLVETGGGLIQPGRSLRLSCAASGFTFSSYAMHWVRQAPGKGLEWVAVISYDGTPVYYADSVKGRFTISRDNSKNTLYLQMNSLRAEDTAVYYCARDPLPLHYYGMDVWGQGTTVTVSS
VL: QSALTQPRSASGNPGQRVTISCSGSSSNMGRRPVNWYQQIPGTAPKLLIYSQNQRPSGVPDRFSGSQSGTSASLTISGLQSEDEAEYFCAVWDGDRRSLQLGGGTQLAVLG
With B4, the Kd in test [4] was 0.7 nM.

B5: CPA.9.086 (antibody, V domains shown)
VH: EVQLVETGGGLIQPGRSLRLSCAASGFTFSSYAMHWVRQAPGKGLEWVAVISYAGEVKYYADSVKGRFTISRDNSKNTLYLQMNSLRAEDTAVYYCARDPLPLHYYGMDVWGQGTTVTVSS
VL: QSALTQPRSASGNPGQRVTISCSGSSSNMGRRPVNWYQQIPGTAPKLLIYSQNQRPSGVPDRFSGSQSGTSASLTISGLQSEDEAEYFCAVWDDIGRVLQLGGGTQLAVLG
B5 returned a Kd in test [4] of 1.32 nM.

B6: CPA.9.547.13 (antibody, V domains shown)
VH: EVQLVESGGGLVQPGGSLRLSCAASGFTFSSYIMSWVRQAPGKGLEWVATISGGGTNTYYADSVKGRFTISRDNSKNTLYLQMNSLRAEDTAVYYCAKWLLSYYAMDYWGQGTLVTVSS
VL: DIQMTQSPSSLSASVGDRITITCRASQNINVWLTWYQQKPGKAPKLLIYKASKSHTGVPSRFSGSGSGTDFTLTISSLQPEDFATYYCQQGQSYPYTFGQGTKLEIKR
Consider B6, for which the Kd in test [5] is 1.67 nM; in test [6], 0.71 nM.

B7: CHA.9.547.7 (antibody, V domains shown)
VH: EVQLVESGGGLVQPGGSLRLSCAASGFTFSSYIMSWVRQAPGKGLEWVSTISGGGTNTYYADSVKGRFTISRDNSKNTLYLQMNSLRAEDTAVYYCAKWLLSYYAMDYWGQGTLVTVSS
VL: DIQMTQSPSSLSASVGDRVTITCRASQNINVWLTWYQQKPGKAPKLLIYKASKSHTGVPSRFSGSGSGTDFTLTISSLQPEDFATYYCQQGQSYPYTFGQGTKLEIKR
Regarding B7, the Kd worked out at 1.54 nM in test [3] and 1.82 nM in test [7].
